From patent publication US20240034813A1 (Janssen / Centocor, published 2024)

Experiments:
[1] = target: T1, recombinant human EGFR/ErbB1/HER1 with C-terminal His tag, Cy5-labeled (human, UniProt P00533 25-645, Cy5 label (reacted with Cy5 Mono NHS Ester; sites not stated)); test: competitive TR-FRET (Eu-amivantamab/Cy5-EGFR), EC50 ratio vs Reference Material; Ex. 11 drug product, 5 months at 5 C
T1 construct: Commercial protein; also called Cy5-EGFR; Cy5-labeled EGFR antigen; not shown: C-terminal His tag
From the text: (§1) In this procedure, varying concentrations of unlabeled bispecific EGFR-cMet antibody sample compete with donor fluorophore (Europium (Eu) chelate) labeled bispecific EGFR-cMet antibody for binding to an acceptor fluorophore (Cy5)-labeled EGFR antigen. Excitation of the donor fluorophore results in a transfer of energy to the bound acceptor fluorophore (FRET process). The resultant FRET is detected by emission of light at 665 nm using a microplate reader capable of measuring time-resolved fluorescence. Sample dose response curves are compared to the RM.
(§2) EGFR Binding Materials and Methods. Certified commercial EGFR, a recombinant human EGFR/ErbB1/HER1 with C-terminal His tag is reacted with certified commercial Cy5 Mono NHS Ester to produce Cy5-labeled EGFR. Validated bispecific EGFR-cMet antibody is reacted with certified commercial Europium (Eu) chelate to produce Eu-labeled bispecific EGFR-cMet antibody. […] Fluorescence is then measured by spectrophotometry at 665 nm, plotted against antibody concentration and analyzed by a four-parameter logistic model. The antibody concentration required to obtain half of the maximum fluorescence response (EC50) is determined for RM, assay control and samples. The potencies of assay control and samples are calculated based on the ratio of the sample (or control) and RM EC50 values and reported as a percentage activity relative to the RM.

[2] = target: T2, recombinant cMet/HGFR with c-terminal His-tag, Cy5-labeled (UniProt P08581 25-932, limits assumed, Cy5 label (reacted with Cy5 Mono NHS Ester; sites not stated)); test: competitive TR-FRET (Eu-amivantamab/Cy5-c-MET), EC50 ratio vs Reference Material; Ex. 11 drug product, 0 months, 25 C table
T2 construct: Commercial protein; also called Cy5-c-MET; Cy5-labeled c-MET antigen; not shown: C-terminal His-tag
From the text: as §1, with “(Cy5)-labeled c-MET” for “(Cy5)-labeled EGFR”, “the Reference Material (RM).” for “the RM.”
as §2, with “c-MET Binding” for “EGFR Binding”, “commercial cMet,” for “commercial EGFR,”, “recombinant cMet/HGFR” for “recombinant human EGFR/ErbB1/HER1”, “with c-terminal His-tag” for “with C-terminal His tag”, “Cy5-labeled c-MET.” for “Cy5-labeled EGFR.”, “produce Eu labeled” for “produce Eu-labeled”

[3] = target: T1, recombinant human EGFR/ErbB1/HER1 with …; test: competitive TR-FRET (Eu-amivantamab/Cy5-EGFR), EC50 ratio vs Reference Material; Ex. 2 Formulation 3 (acetate), 3 months at 40 C
From the text: as §1, §2

[4] = target: T2, recombinant cMet/HGFR with c-terminal …; test: competitive TR-FRET (Eu-amivantamab/Cy5-c-MET), EC50 ratio vs Reference Material; Ex. 12 drug product with rHuPH20, 5 months at 5 C
From the text: as §1, with “(Cy5)-labeled c-MET” for “(Cy5)-labeled EGFR”, “the Reference Material (RM).” for “the RM.”
as §2, with “c-MET Binding” for “EGFR Binding”, “commercial cMet,” for “commercial EGFR,”, “recombinant cMet/HGFR” for “recombinant human EGFR/ErbB1/HER1”, “with c-terminal His-tag” for “with C-terminal His tag”, “Cy5-labeled c-MET.” for “Cy5-labeled EGFR.”, “produce Eu labeled” for “produce Eu-labeled”

[5] = target: T2, recombinant cMet/HGFR with c-terminal …; test: competitive TR-FRET (Eu-amivantamab/Cy5-c-MET), EC50 ratio vs Reference Material; Ex. 12 drug product with rHuPH20, 1 month at 40 C
From the text: as §1, with “(Cy5)-labeled c-MET” for “(Cy5)-labeled EGFR”, “the Reference Material (RM).” for “the RM.”
as §2, with “c-MET Binding” for “EGFR Binding”, “commercial cMet,” for “commercial EGFR,”, “recombinant cMet/HGFR” for “recombinant human EGFR/ErbB1/HER1”, “with c-terminal His-tag” for “with C-terminal His tag”, “Cy5-labeled c-MET.” for “Cy5-labeled EGFR.”, “produce Eu labeled” for “produce Eu-labeled”

[6] = target: T2, recombinant cMet/HGFR with c-terminal …; test: competitive TR-FRET (Eu-amivantamab/Cy5-c-MET), EC50 ratio vs Reference Material; Ex. 2 Formulation 2 (50 mM histidine), T0, 25 C table
From the text: as §1, with “(Cy5)-labeled c-MET” for “(Cy5)-labeled EGFR”, “the Reference Material (RM).” for “the RM.”
as §2, with “c-MET Binding” for “EGFR Binding”, “commercial cMet,” for “commercial EGFR,”, “recombinant cMet/HGFR” for “recombinant human EGFR/ErbB1/HER1”, “with c-terminal His-tag” for “with C-terminal His tag”, “Cy5-labeled c-MET.” for “Cy5-labeled EGFR.”, “produce Eu labeled” for “produce Eu-labeled”

[7] = target: T1, recombinant human EGFR/ErbB1/HER1 with …; test: competitive TR-FRET (Eu-amivantamab/Cy5-EGFR), EC50 ratio vs Reference Material; Ex. 2 Formulation 2 (50 mM histidine), 3 months at 25 C
From the text: as §1, §2

[8] = target: T2, recombinant cMet/HGFR with c-terminal …; test: competitive TR-FRET (Eu-amivantamab/Cy5-c-MET), EC50 ratio vs Reference Material; Ex. 2 Formulation 2 (50 mM histidine), 3 months at 25 C
From the text: as §1, with “(Cy5)-labeled c-MET” for “(Cy5)-labeled EGFR”, “the Reference Material (RM).” for “the RM.”
as §2, with “c-MET Binding” for “EGFR Binding”, “commercial cMet,” for “commercial EGFR,”, “recombinant cMet/HGFR” for “recombinant human EGFR/ErbB1/HER1”, “with c-terminal His-tag” for “with C-terminal His tag”, “Cy5-labeled c-MET.” for “Cy5-labeled EGFR.”, “produce Eu labeled” for “produce Eu-labeled”

EGFR Binding activity relative to Reference Material (%) [1]: 85%
cMET Binding activity relative to Reference Material (%) [2]: 85%
EGFR Binding % activity relative to RM [3]: 46%
cMET Binding activity relative to Reference Material (%) [4]: 100%
cMET Binding activity relative to Reference Material (%) [5]: 81%
cMET Binding % activity relative to RM [6]: 102%
EGFR Binding % activity relative to RM [7]: 77%
cMET Binding % activity relative to RM [8]: 89%
B1: amivantamab (bispecific antibody, human IgG1, kappa)
heavy 1: not shown
light 1: not shown
heavy 2: not shown
light 2: DIQMTQSPSSVSASVGDRVTITCRASQGISNWLAWFQHKPGKAPKLLIYAASSLLSGVPSRFSGSGSGTDFTLTISSLQPEDFATYYCQQANSFPITFGQGTRLEIKRTVAAPSVFIFPPSDEQLKSGTASVVCLLNNFYPREAKVQWKVDNALQSGNSQESVTEQDSKDSTYSLSSTLTLSKADYEKHKVYACEVTHQGLSSPVTKSFNRGEC
notes: The samples tested were high concentration (160 mg/mL) formulations, fresh or stored or stressed; also called JNJ-61186372; bispecific EGFR-cMet antibody
